The values that follow are results of earlier work, collected in publication PMC2879597.

As usually defined, the Kd is a measure of binding affinity in units of concentration.

The series concerns the target hIL-10/sIL-10R1 complex (Homo sapiens) (UniProt P22301).

Chain of sIL-10R2 ECD (Q08334 20-220): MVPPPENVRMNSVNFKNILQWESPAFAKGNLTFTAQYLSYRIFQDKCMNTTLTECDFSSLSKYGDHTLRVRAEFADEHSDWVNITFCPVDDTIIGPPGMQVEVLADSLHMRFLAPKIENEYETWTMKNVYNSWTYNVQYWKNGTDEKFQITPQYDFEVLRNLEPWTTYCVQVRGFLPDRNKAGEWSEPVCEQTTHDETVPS
Chain of hIL-10/sIL-10R1 complex (Homo sapiens) (P22301 19-178, chain 1 of 2): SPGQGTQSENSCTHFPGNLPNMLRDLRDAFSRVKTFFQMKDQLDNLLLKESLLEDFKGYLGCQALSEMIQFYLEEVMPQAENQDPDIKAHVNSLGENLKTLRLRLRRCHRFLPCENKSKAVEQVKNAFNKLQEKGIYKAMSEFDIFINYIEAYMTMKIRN
Chain of hIL-10/sIL-10R1 complex (Homo sapiens) (Q13651 22-235, chain 2 of 2, further chain): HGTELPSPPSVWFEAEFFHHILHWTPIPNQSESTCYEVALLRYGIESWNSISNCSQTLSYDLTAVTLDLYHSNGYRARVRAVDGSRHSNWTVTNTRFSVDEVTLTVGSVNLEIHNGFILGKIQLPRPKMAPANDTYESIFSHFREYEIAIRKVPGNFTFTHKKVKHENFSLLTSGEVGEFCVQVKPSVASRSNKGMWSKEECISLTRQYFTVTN

Turning to sIL-10R2 ECD (from UniProt Q08334), the dissociation constant Kd is 250 µM.
